Source: publication doi:10.1101/2023.06.21.545984

Assays:
[1] = target: free Acinetobacter baumannii 118362 cysteine desulfurase (construct RB30, C-terminally His6-tagged, tag removed) (Acinetobacter baumannii 118362); experiment: SEC
[2] = target: Acinetobacter baumannii 118362 Family 2A encapsulin shell protein (J517_0527) (Acinetobacter baumannii 118362); experiment: cryo-EM structure
[3] = target: degraded free cysteine desulfurase that has lost the N-terminal CLD (Acinetobacter baumannii 118362); experiment: SEC

## free Acinetobacter baumannii 118362 cysteine desulfurase (construct RB30, C-terminally His6-tagged, tag removed) (enzyme)
[1]
  stoichiometry N: 2

## Acinetobacter baumannii 118362 Family 2A encapsulin shell protein (J517_0527) (natural protein)
[2]
  stoichiometry N: 60 subunits

## Acinetobacter baumannii 118362 cysteine desulfurase (J517_0528), co-expressed from the four-gene operon (enzyme)
[2]
  stoichiometry N (CD cargo proteins per encapsulin shell): < 24

## degraded free cysteine desulfurase that has lost the N-terminal CLD (domain or fragment)
[3]
  stoichiometry N: 2
